Experimental data from the supplement of paper PMC6379048.

Experiments:
Assay in all cases: Kd (EC50 corrected by depletion factor)
ZFP36L2 = biological target: T1, ZFP36L2 (UniProt P47974)
T1 sequence: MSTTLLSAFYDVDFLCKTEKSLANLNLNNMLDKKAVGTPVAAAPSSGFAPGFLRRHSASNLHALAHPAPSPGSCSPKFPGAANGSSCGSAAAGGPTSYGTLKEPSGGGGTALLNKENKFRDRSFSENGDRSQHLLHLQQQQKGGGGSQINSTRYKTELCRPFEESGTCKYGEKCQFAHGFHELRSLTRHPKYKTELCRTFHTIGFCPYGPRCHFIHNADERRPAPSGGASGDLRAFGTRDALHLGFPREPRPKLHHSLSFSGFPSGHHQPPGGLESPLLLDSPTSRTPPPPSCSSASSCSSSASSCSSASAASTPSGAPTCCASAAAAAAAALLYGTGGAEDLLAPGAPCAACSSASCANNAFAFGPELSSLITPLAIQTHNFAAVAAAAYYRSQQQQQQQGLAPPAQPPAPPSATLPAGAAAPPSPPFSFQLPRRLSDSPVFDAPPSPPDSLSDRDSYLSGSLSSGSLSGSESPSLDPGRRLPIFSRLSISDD
Outline: (§1)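 Free RNA oligos (0 nM to 30 μM) were pre-incubated with HEK293-FT lysate (2.5 mg protein/well) for 1 h at 4°C, followed by 30 min at 4°C with the same 5′-amino-C6 oligos coupled to NHS-Sepharose beads. Bound proteins were quantified by label-free LC-MS/MS and normalised to the control. EC50 was derived from a four-parameter log-logistic fit, and Kd was obtained by multiplying EC50 by a protein-dependent depletion factor.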

MEX3A = biological target: T2, MEX3A (UniProt A1L020)
T2 sequence: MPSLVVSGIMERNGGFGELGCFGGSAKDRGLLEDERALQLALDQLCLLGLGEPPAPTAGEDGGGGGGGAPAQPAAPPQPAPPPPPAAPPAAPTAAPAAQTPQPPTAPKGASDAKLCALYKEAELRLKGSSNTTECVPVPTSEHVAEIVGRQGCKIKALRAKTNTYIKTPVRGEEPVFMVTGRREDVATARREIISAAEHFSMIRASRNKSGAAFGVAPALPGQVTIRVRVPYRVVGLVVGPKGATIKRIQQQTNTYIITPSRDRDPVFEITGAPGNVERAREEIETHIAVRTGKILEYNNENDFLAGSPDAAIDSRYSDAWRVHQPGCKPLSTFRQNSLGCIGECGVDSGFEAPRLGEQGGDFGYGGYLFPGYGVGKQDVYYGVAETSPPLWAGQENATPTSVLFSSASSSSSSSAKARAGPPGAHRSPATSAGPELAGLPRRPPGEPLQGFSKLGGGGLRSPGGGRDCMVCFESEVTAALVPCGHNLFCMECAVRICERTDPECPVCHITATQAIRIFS
Outline: as §1

LSM2 = biological target: T3, LSM2 (UniProt Q9Y333)
T3 sequence: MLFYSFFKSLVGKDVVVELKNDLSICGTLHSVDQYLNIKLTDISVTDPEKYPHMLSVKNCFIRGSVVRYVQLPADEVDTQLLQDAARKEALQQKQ
Outline: as §1

RBM17 = biological target: T4, RBM17 (UniProt Q96I25)
T4 sequence: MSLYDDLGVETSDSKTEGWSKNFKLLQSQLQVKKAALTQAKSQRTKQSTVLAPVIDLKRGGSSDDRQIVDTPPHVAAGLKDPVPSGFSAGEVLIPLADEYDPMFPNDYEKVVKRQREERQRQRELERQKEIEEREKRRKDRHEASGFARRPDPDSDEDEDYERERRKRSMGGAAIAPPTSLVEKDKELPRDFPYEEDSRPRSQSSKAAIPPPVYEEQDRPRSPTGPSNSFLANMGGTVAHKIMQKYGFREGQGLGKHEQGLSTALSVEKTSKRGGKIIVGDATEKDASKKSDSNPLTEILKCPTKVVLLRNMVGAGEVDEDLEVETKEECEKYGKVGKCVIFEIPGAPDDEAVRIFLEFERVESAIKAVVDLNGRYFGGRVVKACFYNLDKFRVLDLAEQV
Outline: as §1

XAB2 = biological target: T5, XAB2 (UniProt Q9HCS7)
T5 sequence: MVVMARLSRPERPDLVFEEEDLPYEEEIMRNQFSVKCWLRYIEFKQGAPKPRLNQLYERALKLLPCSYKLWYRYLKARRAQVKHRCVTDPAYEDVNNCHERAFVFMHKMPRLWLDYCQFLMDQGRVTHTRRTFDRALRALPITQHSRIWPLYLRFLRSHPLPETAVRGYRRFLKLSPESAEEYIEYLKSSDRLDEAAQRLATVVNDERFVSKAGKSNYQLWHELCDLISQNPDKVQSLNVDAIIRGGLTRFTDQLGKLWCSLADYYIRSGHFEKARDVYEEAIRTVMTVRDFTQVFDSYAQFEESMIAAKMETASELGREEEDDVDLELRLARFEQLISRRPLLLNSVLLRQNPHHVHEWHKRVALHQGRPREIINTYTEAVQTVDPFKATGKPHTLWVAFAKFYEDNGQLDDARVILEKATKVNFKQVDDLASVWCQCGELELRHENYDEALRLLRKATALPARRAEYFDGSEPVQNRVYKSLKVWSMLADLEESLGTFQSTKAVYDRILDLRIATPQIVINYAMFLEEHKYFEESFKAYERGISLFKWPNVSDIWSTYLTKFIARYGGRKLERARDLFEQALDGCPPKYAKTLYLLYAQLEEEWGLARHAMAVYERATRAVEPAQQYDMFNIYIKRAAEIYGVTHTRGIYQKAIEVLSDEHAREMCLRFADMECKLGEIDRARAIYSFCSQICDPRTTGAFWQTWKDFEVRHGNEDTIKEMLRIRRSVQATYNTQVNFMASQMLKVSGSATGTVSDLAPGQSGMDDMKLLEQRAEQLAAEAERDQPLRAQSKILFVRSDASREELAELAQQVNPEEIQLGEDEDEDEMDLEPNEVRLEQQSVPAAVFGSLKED
Outline: as §1

| Sequence | Kd (ZFP36L2) [nM] | Kd (MEX3A) [nM] | Kd (LSM2) [nM] | Kd (RBM17) [nM] | Kd (XAB2) [nM] |
| --- | --- | --- | --- | --- | --- |
| UAUUUAU | 11.1 | 277 | 309 | 59.9 | 286 |
| AAUAAA | 357 | 536 | 52.7 | 940 | 322 |
